Laboratory results from patent US10487331.

What was measured:
[1] = system: surface proteins of Aggregatibacter actinomycetemcomitans (whole cells) (Aggregatibacter actinomycetemcomitans); details: whole-cell binding, real-time PCR of eluted aptamer, SELEX buffer, room temperature
[2] = system: surface proteins of Porphyromonas gingivalis (whole cells) (Porphyromonas gingivalis); details: whole-cell binding, real-time PCR of eluted aptamer, SELEX buffer, room temperature

Row | Sequence | Kd [1] [nM] | Kd [2] [nM]
1 | TCCCTACGGCGCTAACCGTATGTGTACCCGGTGGGGCGCGATTGACGCCACCGTGCTACAAC [A. actinomycetemcomitans aptamer] | 3.5 | –
2 | TCCCTACGGCGCTAACTGTAACTGGGAGCGGACCTAGGTTACATGAGCCACCGTGCTACAAC [P. gingivalis aptamer] | – | 4.59
